In one data set the target is AtWRKY2-N (Arabidopsis, UniProt Q9FG77 270-332). The experiment in a line: crystal structure; 2.4 A; zinc finger; ITC: 25 mM HEPES pH 7.0, 100 mM NaCl, 20 C, 0.25 mM protein into 0.026 mM DNA; EMSA: 25 mM HEPES pH 7.0, 100 mM NaCl, 5% glycerol, 6 pmol DNA in 6 ul, 4 C 20 min. Conditions: protein: recombinant; tags: C-terminal His; 5' overhang 1 nt at each end. For orientation: In EMSA bound probe runs differently from free probe, usually more slowly.

Another data set addresses AtWRKY33-N (Arabidopsis, UniProt Q8S8P5 185-242). The experiment in a line: crystal structure; 3.0 A; zinc finger; ITC: 25 mM HEPES pH 7.0, 100 mM NaCl, 20 C, 0.25 mM protein into 0.026 mM DNA; EMSA: 25 mM HEPES pH 7.0, 100 mM NaCl, 5% glycerol, 6 pmol DNA in 6 ul, 4 C 20 min. The note with it: protein: recombinant; tags: C-terminal His; 5' overhang 1 nt at each end.
Data set [1] deals with T1, AtWRKY1-N (Arabidopsis, UniProt Q9SI37 108-169). The description is as above. Conditions: protein: recombinant; tags: C-terminal His; 5' overhang 1 nt at each end.
The target of data set [2] is T1, AtWRKY1-N. The data set is described as follows: ITC; ITC: 25 mM HEPES pH 7.0, 100 mM NaCl, 20 C, 0.25 mM protein into 0.026 mM DNA; EMSA: 25 mM HEPES pH 7.0, 100 mM NaCl, 5% glycerol, 6 pmol DNA in 6 ul, 4 C 20 min. Conditions: protein: recombinant; tags: C-terminal His; blunt. In general terms: In ITC the heat of successive injections is recorded.
Data set [3] deals with T1, AtWRKY1-N. The data set is described as above. Conditions: protein: recombinant; tags: C-terminal His; blunt. This is another data set of the same source.
In data set [4] the target is T1, AtWRKY1-N. Described as above. The note with it: protein: recombinant; tags: C-terminal His; blunt. The source holds these as a separate data set.
The target of the next data set is AtWRKY1-C (Arabidopsis, UniProt Q9SI37 301-366). The description is as above. The note with it: protein: recombinant; tags: C-terminal His; blunt.
Another data set concerns the target AtWRKY1 101-339 (Arabidopsis, UniProt Q9SI37-2 101-339). The experiment in a line: ITC; N=0.5, two DNA per protein; 0.11 mM protein into 0.026 mM DNA; ITC: 25 mM HEPES pH 7.0, 100 mM NaCl, 20 C, 0.25 mM protein into 0.026 mM DNA; EMSA: 25 mM HEPES pH 7.0, 100 mM NaCl, 5% glycerol, 6 pmol DNA in 6 ul, 4 C 20 min. Conditions: protein: recombinant; tags: C-terminal His; blunt.

The next data set addresses AtWRKY1-N K118A (Arabidopsis, UniProt Q9SI37 108-169, K118A). The experiment in a line: EMSA; ITC: 25 mM HEPES pH 7.0, 100 mM NaCl, 20 C, 0.25 mM protein into 0.026 mM DNA; EMSA: 25 mM HEPES pH 7.0, 100 mM NaCl, 5% glycerol, 6 pmol DNA in 6 ul, 4 C 20 min. The note with it: protein: recombinant; tags: C-terminal His; label: 5' Cy3 on strand 1; blunt.
The target in a further data set is AtWRKY1-N Y119A (Arabidopsis, UniProt Q9SI37 108-169, Y119A). The description is as above. The note with it: protein: recombinant; tags: C-terminal His; label: 5' Cy3 on strand 1; blunt.
The target of another data set is AtWRKY1-N K144A (Arabidopsis, UniProt Q9SI37 108-169, K144A). The description is as above. The note with it: protein: recombinant; tags: C-terminal His; label: 5' Cy3 on strand 1; blunt.
In another data set the target is AtWRKY1-N R117A (Arabidopsis, UniProt Q9SI37 108-169, R117A). Described as above. Conditions: protein: recombinant; tags: C-terminal His; label: 5' Cy3 on strand 1; blunt.
The next data set has as its target AtWRKY1-N R135A (Arabidopsis, UniProt Q9SI37 108-169, R135A). The data set is described as above. Conditions: protein: recombinant; tags: C-terminal His; label: 5' Cy3 on strand 1; blunt.
In a further data set the target is AtWRKY1-N Q121A (Arabidopsis, UniProt Q9SI37 108-169, Q121A). The data set is described as above. Conditions: protein: recombinant; tags: C-terminal His; label: 5' Cy3 on strand 1; blunt.
The target in a further data set is AtWRKY1-N Y133A (Arabidopsis, UniProt Q9SI37 108-169, Y133A). Described as above. The note with it: protein: recombinant; tags: C-terminal His; label: 5' Cy3 on strand 1; blunt.
A further data set addresses AtWRKY1-N K122A (Arabidopsis, UniProt Q9SI37 108-169, K122A). The data set is described as above. The note with it: protein: recombinant; tags: C-terminal His; label: 5' Cy3 on strand 1; blunt.

T1 sequence (Q9SI37 108-169): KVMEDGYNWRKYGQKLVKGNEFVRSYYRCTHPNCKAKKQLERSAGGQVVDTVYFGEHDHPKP
Chain of AtWRKY1 101-339 (Q9SI37 other isoform, or with tags, fused parts or gaps): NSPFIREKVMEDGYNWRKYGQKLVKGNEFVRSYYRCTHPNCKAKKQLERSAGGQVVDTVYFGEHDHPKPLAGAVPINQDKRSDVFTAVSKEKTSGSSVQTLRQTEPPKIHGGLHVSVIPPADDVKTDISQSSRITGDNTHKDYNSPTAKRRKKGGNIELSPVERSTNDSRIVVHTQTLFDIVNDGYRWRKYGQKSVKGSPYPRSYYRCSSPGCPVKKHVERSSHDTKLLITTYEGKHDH
Chain of AtWRKY1-N Y133A (Q9SI37 108-169 Y133A): as the sequence (Q9SI37 108-169) above, with Y26A counted along it
Chain of AtWRKY1-N R117A (Q9SI37 108-169 R117A): as the sequence (Q9SI37 108-169) above, with R10A counted along it
Chain of AtWRKY2-N (Q9FG77 270-332): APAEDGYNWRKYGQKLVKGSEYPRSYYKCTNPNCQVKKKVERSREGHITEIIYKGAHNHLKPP
Chain of AtWRKY1-N K122A (Q9SI37 108-169 K122A): as the sequence (Q9SI37 108-169) above, with K15A counted along it
Chain of AtWRKY1-N Y119A (Q9SI37 108-169 Y119A): as the sequence (Q9SI37 108-169) above, with Y12A counted along it
Chain of AtWRKY33-N (Q8S8P5 185-242): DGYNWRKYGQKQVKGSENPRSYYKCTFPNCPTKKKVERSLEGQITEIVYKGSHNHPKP
Chain of AtWRKY1-N K144A (Q9SI37 108-169 K144A): as the sequence (Q9SI37 108-169) above, with K37A counted along it
Chain of AtWRKY1-C (Q9SI37 301-366): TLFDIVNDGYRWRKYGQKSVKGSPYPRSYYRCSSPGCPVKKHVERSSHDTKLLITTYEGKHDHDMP
Chain of AtWRKY1-N Q121A (Q9SI37 108-169 Q121A): as the sequence (Q9SI37 108-169) above, with Q14A counted along it
Chain of AtWRKY1-N K118A (Q9SI37 108-169 K118A): as the sequence (Q9SI37 108-169) above, with K11A counted along it
Chain of AtWRKY1-N R135A (Q9SI37 108-169 R135A): as the sequence (Q9SI37 108-169) above, with R28A counted along it

B1: W-box DNA for crystallization (15 bp) (dsDNA)
DNA 1: AGCCTTTGACCAGCG
DNA 2: TCGCTGGTCAAAGGC
On to B1, for which the binding result with AtWRKY2-N, with AtWRKY33-N and with AtWRKY1-N [1] was “binds” in each case.

B2: T8' to A8' (dsDNA)
DNA 1: CGCCTTTGTCCAGCGC
DNA 2: GCGCTGGACAAAGGCG
Regarding B2, in the data set with AtWRKY1-N [2], the binding signal was 12 fold decrease in affinity vs W-box.

B3: G6' to T6' (dsDNA)
DNA 1: GCGCTTGTCAAAGGCG
DNA 2: CGCCTTTGACAAGCGC
For B3, the binding signal with AtWRKY1-N [3] is 2.5 fold decrease in affinity vs W-box.

B4: T6T7 to C6G7 (dsDNA)
DNA 1: CGCCTCGGACCAGCGC
DNA 2: GCGCTGGTCCGAGGCG
In the case of B4, the binding signal in the data set with AtWRKY1-N [2] is 4.5 fold decrease in affinity vs W-box.

B5: W-box DNA for ITC (dsDNA)
DNA 1: CGCCTTTGACCAGCGC
DNA 2: GCGCTGGTCAAAGGCG
With B5, the results for the Kd with AtWRKY1-N [4], with AtWRKY1-C and with AtWRKY1 101-339 were around 100 nM, 1300 nM and 500 nM, respectively.

B6: G7'C9' to A7'A9' (dsDNA)
DNA 1: CGCCTTTTATCAGCGC
DNA 2: GCGCTGATAAAAGGCG
As for B6, in the data set with AtWRKY1-N [4], the Kd was determined as 7600 nM.

B7: W-box DNA for EMSA (dsDNA)
DNA 1: CGCCTTTGACCAGCGC
DNA 2: GCGCTGGTCAAAGGCG
Take B7: the binding result in the data set with AtWRKY1-N K118A was “binds”; in the data set with AtWRKY1-N Y119A it was “binds”; with AtWRKY1-N K144A it was “no binding”; in the data set with AtWRKY1-N R117A, “binds”; with AtWRKY1-N R135A, “no binding”; with AtWRKY1-N Q121A it was “no binding”. The binding result in the data set with AtWRKY1-N Y133A and with AtWRKY1-N K122A was “no binding” each time.

For orientation: Kd means the concentration at which binding is half-saturated.

Values taken from publication PMC7026264, “Crystal structures of N-terminal WRKY transcription factors and DNA complexes”.
